Broadly, the EC50 is the concentration that produces a half-maximal response.

Where no end group is shown, it is not given here.

Experiment [1] addresses T1, antigen peptide [C]-SPVVSGDTSPRHLSN-amide (tau 396-410 with N-terminal cysteine) (human).
T1 construct: Not phosphorylated; Coated free, or conjugated through the N-terminal Cys to BSA or transferrin (phage ELISA); The N-terminal Cys is not part of tau; also called target peptide; short linear peptide
T1 peptide: CSPVVSGDTSPRHLSN-NH2
As to the kind of experiment: phage ELISA, phage supernatant 1:25, anti-M13-HRP, n=1. The source says: (§1) FIG. 7. A panel of phage display-derived anti-tau scFv bind to linear immunogen peptide and full length 2N4R tau in phage ELISA. Phage expressing scFv clones bind to the short linear peptide (SEQ ID NO: 13) (A) conjugated to BSA (black bars) or transferrin (white bars) and to full length recombinant 2N4R tau (B). […] Binding of phage was detected using an HRP-conjugated anti-alpha-M13 antibody and data shown are from a representative experiment (n=1).
(§2) 10.1 Phage ELISA: Supernatants prepared from bacterial cultures infected with phage displaying scFv were tested for binding to full length recombinant 2N4R tau (100 ng/well), target peptide (SEQ ID NO: 13) conjugated to BSA or transferrin (1 μg/well) or BSA (1% in TBS) using standard methods. Antigen was coated onto ELISA plates, then removed, and plates were blocked for 1 h with 5% dried milk in TBS. Samples were diluted 1:25 in 1% BSA/TBS then added to the ELISA plate for 1 h at room temperature (RT). Plates were then washed ×4 with TBS/0.1% Tween (TBST). Alpha-M13-HRP antibody (Abcam, Cambridge, UK) was added (1:5000 dilution in 5% milk/TBS) and incubated for 1 h at RT before washing ×4. TMB ELISA solution was added to each well for 10 min at RT, followed by 1 M sulphuric acid. OD was then measured at 450 nm.
In general terms: In an ELISA, binding on a coated surface is turned into a signal by an enzyme label.

Experiment [2] deals with T2, Bovine serum albumin (bovine, UniProt P02769 25-607).
T2 construct: Negative control antigen in ELISA; also called BSA
As to the kind of experiment: phage ELISA. The protocol:
as §2

Experiment [3] deals with T3, full length recombinant human 2N4R tau (amino acids 1-441) (human, UniProt P10636 1-758).
T3 construct: Bought (rPeptide); recombinant, non-phosphorylated; also called recombinant tau
As to the kind of experiment: phage ELISA, tau 100 ng/well, phage supernatant 1:25, anti-M13-HRP, n=1.
Source text: as §1, §2

Experiment [4] deals with T3, full length recombinant human 2N4R tau …. As to the kind of experiment: ELISA, purified IgG on coated tau, half maximal signal. The protocol:
(§3) 13.1 ELISA analyses: ELISA plates were coated with antigen (full length tau, 100 ng/well; or 1% BSA in 1×TBS) in 1× carbonate-bicarbonate buffer for 1 hour at 37° C. Antigen was removed from wells and the plates were then blocked for 1 hour at RT with 5% dried milk in 1×TBS (200 μl/well). Blocking solution was removed, diluted IgG (10 μg/mL, to 0.0001 μg/mL in 1% BSA/1×TBS) was added to relevant wells, and plates were incubated for 1 hour at RT with gentle shaking. Plates were then washed four times with TBS/0.1% Tween (TBST). Anti-rabbit IgG-HRP antibody (Sigma, St Louis, Mo., USA), diluted 1:5000 in 5% milk/TBS, was added to each well and plates were incubated for 1 hour at RT with gentle shaking before being washed four times with TBST. 25 μL 3,3′,5,5′-tetramethylbenzidine (TMB) ELISA solution was added to each well and plates were incubated for 15 mins at RT, an equal volume of 1 M sulfuric acid was added to each well and OD was measured at 450 nm.
Data were plotted as log concentration of IgG against ELISA signal (OD) and EC₅₀ values were calculated using a four parameter logistic equation with variable slope using GraphPad Prism (GraphPad Software Inc, La Jolla, Calif., USA).

For experiment [5], the target named is T2, Bovine serum albumin. As to the kind of experiment: ELISA on 1% BSA, HEK293F supernatant, anti-rabbit IgG-HRP, n=1. As to the method:
FIG. 9. A panel of anti-tau IgG bind to linear immunogen peptide and full length recombinant 2N4R tau in ELISA format. […] Binding of anti-tau IgG was detected using an HRP-conjugated anti-rabbit secondary antibody and data shown are from a representative experiment (n=1).
as §3, with “Antigen” for “13.1 ELISA analyses: ELISA plates were coated with antigen (full length tau, 100 ng/well; or 1% BSA in 1×TBS) in 1× carbonate-bicarbonate buffer for 1 hour at 37° C. Antigen”, “1×TBS.” for “1×TBS (200 μl/well).”, “removed. HEK293F cell supernatant” for “removed, diluted IgG”, “(Sigma.” for “(Sigma,”, “TBST.” for “TBST. 25 μL”, “RT. An” for “RT, an”

In experiment [6] the target is T3, full length recombinant human 2N4R tau …. As to the kind of experiment: ELISA, HEK293F supernatant on coated tau. As to the method:
as §3, with “Antigen” for “13.1 ELISA analyses: ELISA plates were coated with antigen (full length tau, 100 ng/well; or 1% BSA in 1×TBS) in 1× carbonate-bicarbonate buffer for 1 hour at 37° C. Antigen”, “1×TBS.” for “1×TBS (200 μl/well).”, “removed. HEK293F cell supernatant” for “removed, diluted IgG”, “(Sigma.” for “(Sigma,”, “TBST.” for “TBST. 25 μL”, “RT. An” for “RT, an”

T2 sequence (P02769 25-607 limits assumed): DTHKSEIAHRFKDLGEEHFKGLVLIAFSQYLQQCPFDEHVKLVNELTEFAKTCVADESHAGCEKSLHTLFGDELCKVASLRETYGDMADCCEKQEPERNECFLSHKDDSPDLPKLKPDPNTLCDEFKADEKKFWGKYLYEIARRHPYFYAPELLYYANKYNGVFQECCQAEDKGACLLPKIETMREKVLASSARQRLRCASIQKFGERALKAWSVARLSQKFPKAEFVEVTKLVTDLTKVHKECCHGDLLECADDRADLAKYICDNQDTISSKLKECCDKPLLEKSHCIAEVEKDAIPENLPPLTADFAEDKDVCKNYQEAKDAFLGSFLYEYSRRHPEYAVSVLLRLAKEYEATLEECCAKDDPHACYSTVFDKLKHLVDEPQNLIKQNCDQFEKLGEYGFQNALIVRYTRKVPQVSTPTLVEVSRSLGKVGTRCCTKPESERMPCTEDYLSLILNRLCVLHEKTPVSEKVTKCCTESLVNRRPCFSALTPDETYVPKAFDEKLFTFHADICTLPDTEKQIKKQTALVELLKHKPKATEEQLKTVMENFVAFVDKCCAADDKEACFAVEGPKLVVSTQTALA
T3 sequence (P10636 other isoform, or with tags, fused parts or gaps limits assumed): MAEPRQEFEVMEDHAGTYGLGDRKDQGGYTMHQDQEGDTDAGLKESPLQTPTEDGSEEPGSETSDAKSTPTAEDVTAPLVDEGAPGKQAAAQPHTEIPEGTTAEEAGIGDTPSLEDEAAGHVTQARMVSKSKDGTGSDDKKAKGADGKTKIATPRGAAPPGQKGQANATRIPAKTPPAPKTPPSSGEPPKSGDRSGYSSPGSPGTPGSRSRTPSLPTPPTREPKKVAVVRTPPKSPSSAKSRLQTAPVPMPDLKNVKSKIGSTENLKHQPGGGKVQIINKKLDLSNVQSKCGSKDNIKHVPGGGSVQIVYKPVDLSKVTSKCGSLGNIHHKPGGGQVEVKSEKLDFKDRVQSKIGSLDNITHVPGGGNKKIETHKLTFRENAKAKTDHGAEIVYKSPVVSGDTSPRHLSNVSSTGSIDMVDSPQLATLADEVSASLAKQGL

B1: Clone 11 human scFv (phage displayed) (scFv, V domains shown)
VH: QVQLQQWGGGLVKPSETLSLTCGVSGGSFNDYYWTWIRQPQGKGLEWIGEINHVGSSRYNPSLGSRVTMSVDTSKSQFSLTLTAVTAADTAIYYCTRGRKTRRVKFFSRYSRDWFDPWGQGSRVTVSS
VL: VMTQSPATLSVSPGERATLSCRASQSVSSNLAWYQQKPGQAPRLLIYGASSRATGIPDRFSGSGSGTDFTLTISRLEPEDFATYYCQQLNSYPFTFGPGTKVDIK
notes: also called rx7; C6
B1: the results for the binding result (in experiment [1]; in the experiment with Bovine serum albumin [2]; in experiment [3]) were “binds”, “no binding (tested: 1:25 phage supernatant)” and “binds”, respectively.

B2: Clone 12 human scFv (phage displayed) (scFv, V domains shown)
VH: QVQLQQWGGGLVKPSETLSLTCGVSGGSFNDYYWTWIRQPQGKGLEWIGEINHVGSSRYNPSLGSRVTMSVDTSKSQFSLTLTAVTAADTAIYYCTRGRKTRRVKFFSRYSRDWFDPWGQGSRVTVSS
VL: MTQSPSSLSASVGDRVTITCRASQGISNYLAWYQQKPGKVPKLLIYAASTLQSGVPSRFSGSGSGTDFTLTISSLQPEDVATYYCQKYNSAPFTFGPGTKVDIK
notes: also called rx8; H11
For the molecule B2, the binding result in experiment [1] was “binds”; with Bovine serum albumin [2], “no binding (tested: 1:25 phage supernatant)”; in experiment [3] it was “binds”.

B3: Clone 13 human scFv (phage displayed) (scFv, V domains shown)
VH: ESGGGVVKPGGSLRLACEASGFTFNKYAMSWVRQAPGKGLEWVSGNSGSGNSTYYADSVKGRFTISRDNSKNILYLDMNNLRAEDTALYYCAKTRGAGRRKPYGMDVWGHGTTVTVSS
VL: VMTQSPSTLSLSPGERATLSCRASQSVANNYLAWYQHKPGQAPRVLIYGASSRATGIPDRFSGSGSGTDFTLTISRLEPEDFAVYYCQQYGSSPRTFGGGTKLEIK
notes: also called rx9; D12
Take B3: the binding result with Bovine serum albumin [2] is “no binding (tested: 1:25 phage supernatant)”.

B4: Clone 1 rabbit monoclonal IgG (antibody, V domains shown)
VH: QSLEESGGGLVKPGGTLTLTCTVSGFSLNNYDMSWVRQAPGKGLEWIGTVSTTYRRYYASWAKGRFTISKTSSTTVDLKMTSLTTEDTATYFCAASGIWGPGTLVTVSL
VL: AQVLTQTTSPVSAAVGGTVTINCQSSQRVYSNYLAWYQQKPGQPPKRLIFLASTLESGVPSRFSGSGSGTQFTLTISDLECDDAATYYCAGTYTGSIWAFGGGTEVVVKG
notes: Rabbit IgG expressed in HEK293F (pRab293); also called P1-D4; #28
Turning to B4, the 50% effective concentration (EC50) in experiment [4] worked out at 0.73 nM. Besides, the binding result with Bovine serum albumin [5] is given as “no binding (tested: supernatant 1:50)”. Also, the “OD (ELISA)” value in experiment [6] was 0.3 OD.

B5: Clone 9 human scFv (phage displayed) (scFv, V domains shown)
VH: VQLVESGGGFVQPGGSLRLSCAASGFTFTDYGIHWVRQAPGKGLEWVAVISHDGSHKYYSDSVKGRSTISRDSSDNTVSLQLDGLRADDTALYYCAKDLPQTGALDFWGRGTLITVSS
VL: MTQSPSSLSASVGDRVTITCQASQDISNYLNWYQQKPGKAPKLLIYDASNLETGVPSRFSGSGSGTDFTFTISSLQPEDFATYYCQQANSFPITFGQGTRLEIK
notes: also called rx2; E5
For the molecule B5, the binding result was “binds” in experiment [1], “no binding (tested: 1:25 phage supernatant)” with Bovine serum albumin [2] and “binds” in experiment [3].

The values above are taken from patent publication US20220265819A1 (GEN2 NEUROSCIENCE, published 2022).
